Results taken from PMC3295773.

Key:
[1] = target: complexin 2 (pig (endogenous in boar sperm)); assay: SDS-resistant complexes on SDS-PAGE, Western blot (bands of the same size); membrane cavitates of bicarbonate-capacitated boar sperm pre-incubated with 0-4 mM CaCl2 and 5 uM Ca2+ ionophore at 37 C for 20 min; non-reducing conditions; blot for complexin 1/2; most complexin left the 95 kDa complex as Ca2+ rose
[2] = target: complexin 2 (pig (endogenous in boar sperm)); assay: SDS-resistant complexes on SDS-PAGE, Western blot (bands of the same size); boar sperm incubated with bicarbonate (with or without Ca2+ ionophore), lysed in 1% Triton X-100 on ice, sucrose gradient fractions 1-13; non-reducing SDS-PAGE; blots for complexin 1/2, syntaxin 3, SNAP 23, VAMP 2, syntaxin 1B, VAMP 3
[3] = target: complexin 2 (pig (endogenous in boar sperm)); assay: SDS-resistant complexes on SDS-PAGE, Western blot (bands of the same size); whole sperm lysate, remaining head fraction and mixed vesicles of boar sperm treated with bicarbonate and 5 uM Ca2+ ionophore A23187; 35 ug crude protein a lane; non-reducing (RT, no reducing agent) or reducing (100 C, 10 min, 0.1 M DTT) conditions

stoichiometry N [1]: 2
stoichiometry N [2]: 2
stoichiometry N [3]: 2
Substance: complexin 2 (natural protein)
